Results as given in patent US20050287518A1.

Legend:
[1] = molecular target: GFP-Rac1 fusion (EGFP mutant, 6His construct) bound to GTPγS [GFP: P42212]; experiment: FRET in solution at saturating (1 micromolar) Alexa-PBD, GFP-Rac1 loaded with varied GTPγS
[2] = molecular target: GFP-Rac1 fusion (EGFP mutant, 6His construct) bound to GTPγS [GFP: P42212]; experiment: FRET titration in solution: 200 nM GFP-Rac1-GTPγS, varied Alexa-PBD, Alexa/GFP emission ratio fit to Y=A*X/(Kd+X)

fold change of corrected Alexa/GFP emission ratio [1]: 4 fold | Kd [2]: 1100 nM
Substance: Alexa-PBD (PBD, fragment of human PAK1, residues 65-150, with a single cysteine added in the penultimate N-terminal position, C-terminal 6His fusion, labeled with Alexa 546) (from UniProt Q13153 65-150)
